In patent US20160051694A1 one finds Geometric Mean (fluorescence) data, which are given here for one substance.

In experiment [1] the target is CD37 (Leukocyte Antigen CD37, Tetraspanin-26) on cells (human) (UniProt P11049). The experiment in a line: FACS, 5 ug/mL biotinylated control antibody + streptavidin-PE, Daudi cells (Burkitt's); background control. Background: Flow cytometry measures light scatter and fluorescence of single cells or particles in a stream.
Experiment [2] shares this target. The experiment in a line: FACS, 5 ug/mL biotinylated control antibody + streptavidin-PE, WSU-DLCL-2 cells (DLBCL); background control.
The target is the same in experiment [3]. The experiment in a line: FACS, 5 ug/mL biotinylated control antibody + streptavidin-PE, REC-1 cells (MCL); background control.
The target is the same in experiment [4]. Kind of experiment: FACS, 5 ug/mL biotinylated control antibody + streptavidin-PE, EoL-1 cells (AML); background control.
Experiment [5] shares this target. The experiment in a line: FACS, 5 ug/mL biotinylated control antibody + streptavidin-PE, Raji cells (Burkitt's); background control.
Experiment [6] has the same target. Kind of experiment: FACS, 5 ug/mL biotinylated control antibody + streptavidin-PE, Mino cells (MCL); background control.
For experiment [7] the target is unchanged. The experiment in a line: FACS, 5 ug/mL biotinylated control antibody + streptavidin-PE, KG-1 cells (AML); filing calls it high isotype control background binding.
The target is the same in experiment [8]. Kind of experiment: FACS, 5 ug/mL biotinylated control antibody + streptavidin-PE, THP-1 cells (AML); background control.
For experiment [9] the target is unchanged. Kind of experiment: FACS, 5 ug/mL biotinylated control antibody + streptavidin-PE, DOHH-2 cells (Follicular); background control.
Experiment [10] shares this target. Kind of experiment: FACS, 5 ug/mL biotinylated control antibody + streptavidin-PE, Ramos RR XCL cells (Burkitt's); background control.
Experiment [11] has the same target. The experiment in a line: FACS, 5 ug/mL biotinylated control antibody + streptavidin-PE, HL-60 cells (AML); background control.
Experiment [12] shares this target. The experiment in a line: FACS, 5 ug/mL biotinylated control antibody + streptavidin-PE, Granta-519 cells (MCL); filing calls it high isotype control background binding.
Experiment [13] has the same target. Kind of experiment: FACS, 5 ug/mL biotinylated control antibody + streptavidin-PE, Kasumi-1 cells (AML); background control.
Experiment [14] has the same target. Kind of experiment: FACS, 5 ug/mL biotinylated control antibody + streptavidin-PE, Mino XCL cells (MCL); background control.
Experiment [15] has the same target. The experiment in a line: FACS, 5 ug/mL biotinylated control antibody + streptavidin-PE, BDCM cells (AML); background control.
The target is the same in experiment [16]. The experiment in a line: FACS, 5 ug/mL biotinylated control antibody + streptavidin-PE, MOLT-4 cells (ALL); background control.
Experiment [17] has the same target. The experiment in a line: FACS, 5 ug/mL biotinylated control antibody + streptavidin-PE, RS4-11 cells (ALL); background control.
For experiment [18] the target is unchanged. Kind of experiment: FACS, 5 ug/mL biotinylated control antibody + streptavidin-PE, Ramos cells (Burkitt's); background control.
For experiment [19] the target is unchanged. The experiment in a line: FACS, 5 ug/mL biotinylated control antibody + streptavidin-PE, JVM-3 cells (CLL); background control.
Experiment [20] has the same target. The experiment in a line: FACS, 5 ug/mL biotinylated control antibody + streptavidin-PE, SU-DHL-4 cells (DLBCL); background control.
For experiment [21] the target is unchanged. The experiment in a line: FACS, 5 ug/mL biotinylated control antibody + streptavidin-PE, MV-4-11 cells (AML); background control.
For experiment [22] the target is unchanged. The experiment in a line: FACS, 5 ug/mL biotinylated control antibody + streptavidin-PE, MOLM-13 cells (AML); background control.
For experiment [23] the target is unchanged. Kind of experiment: FACS, 5 ug/mL biotinylated control antibody + streptavidin-PE, Hel 92.1 cells (AML); filing calls it high isotype control background binding.

CD37 (Leukocyte Antigen CD37, Tetraspanin-26) on cells (human), sequence (P11049 whole entry): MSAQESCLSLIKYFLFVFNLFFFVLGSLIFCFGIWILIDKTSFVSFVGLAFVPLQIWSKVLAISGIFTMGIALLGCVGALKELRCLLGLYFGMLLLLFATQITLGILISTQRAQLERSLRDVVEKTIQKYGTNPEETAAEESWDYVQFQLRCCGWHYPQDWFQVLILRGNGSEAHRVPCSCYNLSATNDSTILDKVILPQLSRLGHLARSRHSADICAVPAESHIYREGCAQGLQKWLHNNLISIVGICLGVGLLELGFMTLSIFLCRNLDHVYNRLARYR

In the case of “Isotype matched control antibody (biotinylated)”, the Geometric Mean (fluorescence) in experiment [1] was determined as 2040; in [2] it was 1200; in experiment [3], 1010; in experiment [4] it was 189; in experiment [5] it was 1760; in experiment [6], 1480. Further, the Geometric Mean (fluorescence) worked out at 8190 in experiment [7]; 324 in [8]; 840 in [9]; 693 in experiment [10]; 967 in experiment [11]; 15400 in [12]. Also, the Geometric Mean (fluorescence) in [13] worked out at 188; in experiment [14] it was 200; in [15], 290; in experiment [16], 1310; in experiment [17], 155; in [18] it was 1150. The Geometric Mean (fluorescence) worked out at 1930 in [19]; 1050 in experiment [20]; 247 in experiment [21]; 240 in [22]; 4220 in [23].
